Reference: US20080234198A1 (Eli Lilly, published 2008)

T1: human VPAC2 receptor (human, UniProt P41587 24-438)
T1 construct: whole, on cells; CHO-S cell line stably expressing human VPAC2 (cAMP assays)
T1 sequence (looked up): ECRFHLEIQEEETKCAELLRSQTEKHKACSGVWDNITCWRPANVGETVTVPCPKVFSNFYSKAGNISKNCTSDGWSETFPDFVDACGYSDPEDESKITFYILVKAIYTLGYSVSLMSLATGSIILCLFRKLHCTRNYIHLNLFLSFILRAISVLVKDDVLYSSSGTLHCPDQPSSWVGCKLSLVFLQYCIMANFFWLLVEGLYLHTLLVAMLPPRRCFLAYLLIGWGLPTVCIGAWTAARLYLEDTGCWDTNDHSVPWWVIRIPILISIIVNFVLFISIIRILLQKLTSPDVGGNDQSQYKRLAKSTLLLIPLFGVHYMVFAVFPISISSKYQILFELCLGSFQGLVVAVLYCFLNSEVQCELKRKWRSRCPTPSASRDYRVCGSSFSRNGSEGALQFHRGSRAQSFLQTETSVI

T2: rat VPAC2 receptor (rat, UniProt P35000 23-437)
T2 sequence (looked up): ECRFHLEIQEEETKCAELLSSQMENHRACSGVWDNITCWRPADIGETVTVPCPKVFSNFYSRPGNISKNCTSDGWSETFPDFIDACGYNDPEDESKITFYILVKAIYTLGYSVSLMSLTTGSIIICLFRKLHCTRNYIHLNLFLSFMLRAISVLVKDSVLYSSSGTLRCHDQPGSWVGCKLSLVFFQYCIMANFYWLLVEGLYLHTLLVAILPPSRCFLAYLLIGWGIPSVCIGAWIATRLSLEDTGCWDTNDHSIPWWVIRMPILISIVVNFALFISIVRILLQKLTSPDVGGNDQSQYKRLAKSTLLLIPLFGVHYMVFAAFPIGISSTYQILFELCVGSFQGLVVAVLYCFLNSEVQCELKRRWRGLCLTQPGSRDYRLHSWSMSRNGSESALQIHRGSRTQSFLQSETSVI

T3: rat VPAC1 receptor (rat, UniProt P30083 31-459)
T3 sequence (looked up): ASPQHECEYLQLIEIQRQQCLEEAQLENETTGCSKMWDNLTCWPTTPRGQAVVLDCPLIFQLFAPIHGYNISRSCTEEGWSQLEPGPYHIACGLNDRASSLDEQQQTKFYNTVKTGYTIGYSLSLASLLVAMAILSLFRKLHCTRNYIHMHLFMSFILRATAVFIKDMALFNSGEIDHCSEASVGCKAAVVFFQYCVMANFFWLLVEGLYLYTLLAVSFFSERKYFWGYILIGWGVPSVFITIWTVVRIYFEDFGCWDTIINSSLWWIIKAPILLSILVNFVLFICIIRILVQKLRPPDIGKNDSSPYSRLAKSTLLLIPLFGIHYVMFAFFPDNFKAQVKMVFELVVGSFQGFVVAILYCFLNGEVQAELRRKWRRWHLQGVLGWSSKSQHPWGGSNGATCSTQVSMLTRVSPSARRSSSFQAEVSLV


Tests used:
human VPAC2 receptor [1] = target: T1, human VPAC2 receptor; experiment: filter binding, VPAC2 cell membranes, displacement of 125I-VIP
Description: Binding assays: Membrane prepared from a stable VPAC2 cell line (see Example 3) or from cells transiently transfected with human VPAC1 or PAC1 are used.
The assay plate is filled with 25 μL assay buffer, 25 μL membranes (2.5 μg) suspended in assay buffer, 25 μL agonist in assay buffer, and 25 μL tracer (about 40000 cpm) in assay buffer. The filled plate is incubated for 1 hour with shaking.
The transfer from assay plate to filter plate is conducted. The blocking buffer is aspirated by vacuum filtration and washed two times with flush buffer. 90 μL is transferred from the assay plate to the filter plate. The 90 μL transferred from assay plate is aspirated and washed three times with 200 μL flush buffer. The plastic support is removed. It is dried for 1 hour at 60° C. 30 μL Microscint is added. The count is performed.

rat VPAC2 receptor = target: T2, rat VPAC2 receptor; experiment: cell-based or functional assay
rat VPAC1 receptor = target: T3, rat VPAC1 receptor; experiment: cell-based or functional assay
human VPAC2 receptor [2] = target: T1, human VPAC2 receptor; experiment: cell-based or functional assay

Row | Binder | IC50 (human VPAC2 receptor [1]) [nM] | Rat VPAC2 Receptor: DiscoveRx: (EC50; nM) (rat VPAC2 receptor) [nM] | Rat VPAC1 Receptor: DiscoveRx: (EC50; nM) (rat VPAC1 receptor) [nM] | Human VPAC2 Receptor: Alphascreen (EC50; nM) (human VPAC2 receptor [2]) [nM] | Human VPAC2 Receptor: DiscoveRx (EC50; nM) (human VPAC2 receptor [2]) [nM]
1 | HSDAVFTEQYTXLRXQLAXXXYXQSIXXGGPSSGAPPPCC (C6-HSDAVFTEQY(OMe)TOrnLRAibQLAAbuAibOrnYAibQSIOrnOrnGGPSSGAPPPC(PEG30K)C(PEG30K)-NH2) [P602] | 28 | 36.9 | 209 | 42.1 | 7.2
2 | HSDAVFTEQYTRXRXQLAAXXYLQSIKXXGGPSSGAPPPC (C6-HSDAVFTEQY(OMe)TRAibRAibQLAAAibOrnY(OMe)LQSIKAibOrnGGPSSGAPPPC(PEG40K)-NH2) [P417] | 24.1 | 8.7 | 232 | 14.7 | –
3 | HSDAVFTEQYTXLRXQLAXXXYLQXIXCXGGPSSGAPPPS (C6-HSDAVFTEQY(OMe)TOrnLRAibQLAAbuAibOrnYLQAibIOrnC(PEG40K)OrnGGPSSGAPPPS-NH2) [P537] | 17.2 | 38.8 | 206 | 32 | –
4 | HSDAVFTEQYTXLRXQLAAXXYLQSIXXCGGPSSGAPPPS (C6-HSDAVFTEQY(OMe)TOrnLRAibQLAAAibOrnYLQSIOrnOrnC(PEG40K)GGPSSGAPPPS-NH2) [P560] | 11.6 | 20.4 | 156 | 13.8 | 11.3
5 | HSDAVFTEQYTXLRXQLAXXXYLQSIXXXGGPSSGAPPPC (C6-HSDAVFTEQY(OMe)TOrnLRAibQLAAbuAibOrnYLQSIOrnK(CO(CH2)2SPEG20K)OrnGGPSSGAPPPC(PEG20K)-NH2) [P551] | 16.6 | 13.2 | 172 | 15.6 | –
6 | HSDAVFTEQYTXLRXQLAXXXYLQSIXXCGGPSSGAPPPS (C6-HSDAVFTEQY(OMe)TOrnLRAibQLAAbuAibOrnYLQSIOrnOrnC(PEG40K)GGPSSGAPPPS-NH2) [P566] | 8.2 | 13.1 | 52.7 | 11.8 | 7.8
7 | HSDAVFTEQYTXLRXQLAXXXYLQSIXCXGGPSSGAPPPS (C6-HSDAVFTEQY(OMe)TOrnLRAibQLAAbuAibOrnYLQSIOrnC(PEG40K)OrnGGPSSGAPPPS-NH2) [P539] | 13.5 | 21 | 32.6 | 10.7 | 47.3
8 | HSDAVFTEQYTXLRXQLAXXXYLQXIXXCGGPSSGAPPPC (C6-HSDAVFTEQY(OMe)TOrnLRAibQLAAbuAibOrnYLQAibIOrnOrnC(PEG20K)GGPSSGAPPPC(PEG20K)-NH2) [P580] | 20.7 | 11.9 | 1.1 | 10.9 | –
9 | HSDAVFTEQYTXLRXQLAXXXYLQXIXCXGGPSSGAPPPC (C6-HSDAVFTEQY(OMe)TOrnLRAibQLAAbuAibOrnYLQAibIOrnC(PEG20K)OrnGGPSSGAPPPC(PEG20K)-NH2) [P553] | 21.7 | 22 | 262 | 15 | –
10 | HSDAVFTEQYTXLRXQLAXXXYLQSIXCXGGPSSGAPPPC (C6-HSDAVFTEQY(OMe)TOrnLRAibQLAAbuAibOrnYLQSIOrnC(PEG20K)OrnGGPSSGAPPPC(PEG20K)-NH2) [P555] | 15.4 | 32.5 | 68.9 | 22.5 | 8.1
11 | HSDAVFTEQYTXLRXQVAAXXYLQSIXXCGGPSSGAPPPC (C6-HSDAVFTEQY(OMe)TOrnLRAibQVAAAibOrnYLQSIOrnOrnC(PEG20K)GGPSSGAPPPC(PEG20K)-NH2) [P562] | 42.8 | 52.5 | 393 | 30.2 | 24.2
12 | HSDAVFTEQYTXLRXQLAXXXYLQSIXXCGGPSSGAPPPC (C6-HSDAVFTEQY(OMe)TOrnLRAibQLAAbuAibOrnYLQSIOrnOrnC(PEG20K)GGPSSGAPPPC(PEG20K)-NH2) [P572] | 14.9 | 10.8 | 94.5 | 11.2 | –
